Experimental data published in paper PMC2173804.

Biological target: GST-FKH (FKHRL1/FOXO3a DNA-binding domain) (UniProt O43524 141-268, S253A)
Test: EMSA

GST-FKH (FKHRL1/FOXO3a DNA-binding domain), sequence (O43524 141-268 S253A): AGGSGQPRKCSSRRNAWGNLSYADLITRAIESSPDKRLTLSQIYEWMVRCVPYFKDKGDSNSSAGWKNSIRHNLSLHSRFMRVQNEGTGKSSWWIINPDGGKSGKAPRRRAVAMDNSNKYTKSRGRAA

Binder	binding result
mut2 (dsDNA) DNA 1: CTAGGCAAGGTAAGTTCTCCT DNA 2: CTAGAGGAGAACTTACCTTGC	no binding
mut1 (dsDNA) DNA 1: CTAGCTAGGGTACCCACGCCG DNA 2: CTAGCGGCGTGGGTACCCTAG	no binding
bim2 (dsDNA) DNA 1: CTAGGCAAGGTAAACACTCCT DNA 2: CTAGAGGAGTGTTTACCTTGC	binds
FasL (dsDNA) DNA 1: CTAGAATAAGTAAATAAATAA DNA 2: CTAGTTATTTATTTACTTATT	binds
bim1 (dsDNA) DNA 1: CTAGCTAGGGTAAACACGCCG DNA 2: CTAGCGGCGTGTTTACCCTAG	binds
